According to the supplement of paper PMC12042874:
± gives the uncertainty stated by the source.

assay: amyloid nucleation score (Sup35N fusion, yeast selection) (log enrichment); library NNK3; higher = more nucleation; inactive = no reads after selection
How it was run: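 Peptides of 20 random codons fused to Sup35N were expressed in psi-negative yeast, induced 24 hours with 100 μM copper sulfate, then grown 7 days at 30°C on medium lacking adenine and uracil. Input and output plasmid inserts were Illumina-sequenced. Nucleation score is the DiMSum log enrichment of output over input reads, centred on the mode score of non-aggregating sequences, excluding sequences with under 100 input reads. Random libraries had three technical output replicates.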

| Substance | amyloid nucleation score |
| --- | --- |
| KGSTLVMLP | inactive |
| NGCTW | inactive |
| CLNGPFVCLKYYVCFIAMMF | inactive |
| CFNYRLDFTQNWYMLIQCCH | 0.867 ± 0.24 |
| TIAVLMLIDCGSRGPFRHLT | inactive |
| CVVYLWWLVSASMLCSNWFG | inactive |
| LLGCAYTGSTFHGNVGSFVL | inactive |
| RKWMHMDASVCVTIYWDAGL | 0.38 ± 0.4 |
| SRCRMIGMVISWNG | inactive |
| GYRRKNRHSWTDPGITALNK | inactive |
| FVFIVCMCSSTWAQMYGLNW | 1.25 ± 0.084 |
| RCRTDILYNFERHYLRVEYA | inactive |
| GAQAKC | inactive |
| TDTSAGFM | inactive |
| TENQS | inactive |
| INFYVSFYIIVTCYVVAHCV | 1.32 ± 0.15 |
| GCPIFAIFFDLTLCDNARYM | 2.47 ± 0.08 |
| CMGMCELFNTWCYEGKTPIS | inactive |
| IEFGGNN | 1.68 ± 0.13 |
| SLTGRWSTVGRSMGLNTRGG | inactive |
| PYRGSPACMGDYGNQVGNGS | inactive |
| FDRYYVSPLRVLHQVGCEIL | inactive |
| YVTDMRCGVL | inactive |

| Substance | amyloid nucleation score |
| --- | --- |
| PGYSHVRLVVSSPPLWTDLA | inactive |
| RTSFLGVID | inactive |
| TQWYS | inactive |
| IYSYTVFPSFGGMLCMVLVG | inactive |
| SWVYGSSDPSRVSSCLVGVL | inactive |
| RGICFGYLGFM | 0.145 ± 0.3 |
| EMVITWCLRMLSQAMLGGYS | inactive |
| CIGIYFLIRGTYILIVFSL | -0.607 ± 1 |
| FCGPFSYGRLTYGFWFRKRP | 1.75 ± 0.11 |
| DLVRITMIVYYVAASHMVAS | inactive |
| VGCIRGNGFVTQQATGY | inactive |
| VHYYEE | inactive |
| GVSNRHGGTIYRQRAMHSVG | inactive |
| LCERIGVISGA | inactive |
| SLGLHIWFCTLLAIWTLLLL | inactive |
| GSHICGALSSRDLFSGVLRI | inactive |
| PVHGVGLAIRGSYGSYTGLL | inactive |
| TVIKPWLLICCDLFREVGFA | 1.12 ± 0.14 |
| RLNCDCPAMHVCN | 2.35 ± 0.074 |
| YAGSCK | inactive |
| WCGQWWLLASGVQSFQCCVY | 1.39 ± 0.13 |
| NPLCTSYNQHPRGYHALTYN | inactive |
| RDEASLSYMSPCRYDYCNCF | 0.003 ± 1 |

| Substance | amyloid nucleation score |
| --- | --- |
| ADVLTNRIGPCIKEGIKLGI | inactive |
| IQSSYSMYIEWL | inactive |
| ADCPCYVTGCWLSYWMLYI | inactive |
| LYVLWRLGKQCHTFWFFSSI | 0.265 ± 0.44 |
| VMIFSCYSAYYPNLISHSRW | inactive |
| ECCGDLGAVWQVVRNCGKVL | inactive |
| QDKMSMYTYMMR | inactive |
| ARWGDSLSRDLTSGYLFGVG | inactive |
| VVVMPTNSECCYQYGGMFPM | inactive |
| SRIKD | inactive |
| MGGICRASRCCGCPTGRNCL | 0.665 ± 0.27 |
| TNNTKERYIHLSFMTKWWTF | inactive |
| LFSSFTSPLRMRWLDRSYHF | inactive |
| GRSYREIMDSIFCGQFFYNK | 2.45 ± 0.077 |
| NADCAYCLLFNLRWSVCVRT | -0.067 ± 0.36 |
| KWFRHFHI | inactive |
| TSTHCIIWLGRSDRRREMQL | -0.752 ± 1.9 |
| NLRSS | inactive |
| LDLDSNIGFISVLPF | inactive |
| RSICV | inactive |
| FLLIILTLYASTCRAQYAFR | 1.42 ± 0.15 |
| PNRQDYIVTYLGIPNFLSTW | inactive |
| MCTTRGYMF | inactive |

| Substance | amyloid nucleation score |
| --- | --- |
| LCVFL | 1.1 ± 0.15 |
| QQHAVR | inactive |
| IIRISEFDSCGQTAW | inactive |
| VSDRCFKSTWSLMFYMGVVV | inactive |
| SGRIRVSKSSTGKSLSTSII | inactive |
| DGCSRVMFNASGAMRRKVAN | inactive |
| PVTFSCYNTLACIKLYYGNV | 2.56 ± 0.066 |
| STSVVELVNLVDDLRLNLSR | inactive |
| INGDNAPGYYYIMMIPRDIH | 0.858 ± 0.12 |
| VTCWGWSFAGGRHCQVEAGV | -0.456 ± 0.96 |
| IDMILC | inactive |
| LTLSYKQERTTARGKPVYLR | inactive |
| NQVVAVG | inactive |
| YSMIKFSISAD | inactive |
| WVESESQETHHIAM | -0.113 ± 1 |
| WCDLRFISWSFSVFWCV | inactive |
| CASTDKNPFLPVNAAITYGL | inactive |
| VMFIVNLY | 3.07 ± 0.08 |
| NYDFWVQTISECCELEFVM | inactive |
| FCSRYWLYLCRALLNRVVMR | inactive |
| YGSRW | inactive |
| LLLYWRRTMVALRCTYFGLT | inactive |
| KHRYAYGRRTNCWASHYLRG | inactive |

| Substance | amyloid nucleation score |
| --- | --- |
| RWYRLSGYKSHRNR | inactive |
| VNENLTGFIGV | inactive |
| KPLCLFQARRYRW | inactive |
| LTKGLSAMLQFRWRAVFKNG | inactive |
| YLSPEAQKLDQIDSMSADMV | inactive |
| VGILLFFYLTNVEQAVTFVR | inactive |
| GVNVTKVFTFRMVSCGPDDF | 0.294 ± 0.21 |
| RCRLSKANFRHWNKEVKWTF | inactive |
| RFHSSLCCNMVWF | 3.06 ± 0.06 |
| GHMTVSTWWNIVYMAKGYRV | -0.425 ± 0.8 |
| CRACGRWCNSSYIYIY | inactive |
| VIQGLYSSFMHVYG | inactive |
| CVYYSRKG | 1.95 ± 0.073 |
| FFSSDDMWRYWMFSYSDNSI | inactive |
| HGMPMVAFITFVVNIRGLCD | 0.079 ± 0.81 |
| GYWWELSSKVNVCAMMHRPW | inactive |
| YSRGV | inactive |
| VDDIPYRFKTIKTTG | inactive |
| LLIDCYVDYSC | 0.105 ± 0.24 |
| FFFFTLKTSVQADLHDMLSQ | 0.792 ± 0.16 |
| SWQMWYWLLVKSMPCMLHHF | inactive |
| LKNFIKWRGILPFFGTDFWM | inactive |
| DFILVSLLREDTNVGTACRV | inactive |

| Substance | amyloid nucleation score |
| --- | --- |
| MWYLTDWIDCFCLSNMNICT | 1.81 ± 0.063 |
| VYVSCRMWNFRKMMMPV | inactive |
| KRRMRGALRVRVNSTHCWYV | inactive |
| AILSTLVNTVNRELRQGRLM | inactive |
| ASRSDCTRYIMTTMIWWHFP | inactive |
| HRSINCWAYVRL | inactive |
| YKSDSLLRSSLLTELTPIHF | inactive |
| VTSGLERTMFSGNKRRIEVS | inactive |
| VRFVLDRIACLVGVYIYFWG | inactive |
| FGMPCFSSEYLLTCMVVLTG | inactive |
| SILMMGNLFKLLRKF | inactive |
| SNGELTVEHQGLQPLGEKRT | inactive |
| NVHVISVFGFYEVTLFNDEV | inactive |
| EITLYEQGNNRSLVGPERKS | inactive |
| TLNVVPR | inactive |
| TPFTFGCHRLLQHKYCNSDV | inactive |
| LPSDSGYTGYHVWTLKSTCD | inactive |
| YFQTIVFRGTSGYCIVNQQV | 1.97 ± 0.1 |
| MKLEEELSYRFRRSWFYALW | inactive |
| MGGELCY | inactive |
| NSVNMTRCRVYTCFAFCNW | 3.13 ± 0.07 |
| VHVVLIIWTSHQLTCADLAY | inactive |
| YIVWCHVVWLADCR | inactive |

| Substance | amyloid nucleation score |
| --- | --- |
| SDNRSPSLRLFYRPRFHRLG | inactive |
| RPSSLIYFSSPNTRHGSPTL | inactive |
| WAWNQSGFTPLYLCLEAWWS | inactive |
| KVSNTRLVRTINMSCGISYP | inactive |
| KRVRVRFASAMHGLMSHPDT | inactive |
| SFSYWGKDRSRVSNL | inactive |
| TNIYKARL | inactive |
| PWRRDKSGVVLSWDAISFAW | inactive |
| YIAVG | -0.483 ± 0.75 |
| SIRYFRLSGMMSMYFFCFVV | 0.952 ± 0.14 |
| SLMKPKSVMEAKVIRINLCL | 0.494 ± 0.28 |
| SQLQVISKIENSRKVIQRSS | inactive |
| SSIGFLRSLGHQRPRSVSLP | inactive |
| FYYLTKSGYAFRLSKTSP | inactive |
| VTLQSSSQVSSCVNNSR | inactive |
| YVSLCTTPVGERTSYSCDIH | inactive |
| LCPLMAY | inactive |
| IEFGVCKVRNVVNDVRFRRG | inactive |
| SFVYCIVYLQSPFVLSTMVG | 2.62 ± 0.078 |
| VFWLRYMNVSRANARGNAS | inactive |
| MLYRCLAKYRMWHYVDLSLL | inactive |
